From the DeepSol protein solubility set

test: soluble on expression in E. coli; label from the status in PepcDB or PDB records

Sequence | soluble on expression in E. coli
MKVNPDFFPLTQMAQRFVDQLAQCRRLGLTVLEASEHHVLIELPYSTELIGYPDTGVIHGGVITTLMDTACGSAVVSAIFQKYQSLEISPTLDLRVDYMKPAQPHKSVYGFAECYKLSSNIAFTRAIAYQDSIDDPIAHAVGSFMRISPEMVGDAFRQALIGLEHHHHHH | soluble
MAAGSMDGIFRNIFEGCISSCDSSIQRRPYHKNCGCALHERSRGGGSATPCRHGRSEVVMFPIQRSWSEGNSLALHLASSSSSSNLQSLSSSSSISTLASLSSTVSDIDSPI | soluble
MSLAESAFSERIVQNLLDTDFYKLTMMQAVLHNYPNAEVEWEFRCRNQEDLRLYLPAIREQLEYLAGLAISDEQLAFLERIPFLAPDFIRFLGLFRFNPRYVQTGIENDEFFLRLKGPWLHVILFEVPLLAMISEVRNRARYPAATVEQARERLQEKFDWLRREASAEELAGFKMADFGTRRRFSYRVHEAVVSGLKEDFPGCFVGTSNVHLARKLDLKPLGTMAHEWLMAHQQLGPRLIDSQSAALDCWVREYRGLLGIALTDCITTDAFLRDFDLYFAKLFDGLRHDSGDPLLWAEKTIAHYLKLGIDPLTKTLVFSDGLDLPRALKIYRALQGRINVSFGIGTHFTCDLPGVEPMNIVVKMSACNGHPVAKISDTPGKAQCRDPDFIHYLKHVFQVAEGHHHHHH | soluble
MSLDCFAPAVLGMPAFDRHATWQAMHATTHFIGRVGVAQVGLCAMNLALWDIQLKIEEVPLWRHLGPVKDRVKAYNTDGGWLTWTTAEVIDDMHHIINRGFDAVKMKLGRSDPMEDFQRVRAVRQAIGDDIKLMVDVNTVWDLETAIQWGKRLEELNVEWLEEPLHPFDVRSHAALAKAIRTPIAVGETVYTVYGFREYIAQEAAGVLQADVTKLSGIEEWLEVAAIGQTHGLQVIPHTNVQQNVHVQLAAATTNTPMIECCYESLFEIWENPVRVVDGFYTLPDVPGINGKLTETVLEKFRVSEGHHHHHH | soluble
MEEMLREIERILEWPRMLKATVISKGFSFDEKYKIELESGASYFIKVCDSSYFERKQEEYEYMQQLDSLHIPMPKLIHFISLTKFNKCVQVFEWIDGLDGEDNLRTLSTQTQYRAGKKAGEVIKKIHLVEKEDKSNSWEMSIWSKYERYLEALKEYEVDFFRLNTVIDFVGNHKDLLKNRPIVFLHDDFHPANIMIDQNEFRAVIDFARFDIGDPIHDFYKVALFTTNISKPFAVGQVHGYCGGEPDLHFWKLYSLYAAMIFPADIVWTNRSTPYLLDDMKERLNGILEDHNDFSSYIPKWYQSSEFNK | not soluble
VGVKPVGSDPDFQPELSGAGSRLAVVKFTMRGCGPCLRIAPAFSSMSNKYPQAVFLEVDVHQCQGTAATNNISATPTFQFFRNKVRIDQYQGADAVGLEEKIKQHLE | soluble
MGHHHHHHSHDDSSEWGNSFFWNQLLHVPLRQHQVSCCDWLLKIICGVVTIRTVYASHKQAKACLVSRVSCERTGTRFHTRGVNDDGHVSNFVETEQMIYMDDGVSSFVQIRGSVPLFWEQPGLQVGSHHLRLHRGLEANAPAFDRHMVLLKEQYGQQVVVNLLGSRGGEEVLNRAFKKLLWASCHAGDTPMINFDFHQFAKGG | not soluble
MAHHHHHHMKRTLSLGIEGSANKIGVGVVDQSGTVLSNVRETYITPPGSGFLPRETAIHHSQHVLQVVQRAMHDAAVTPADIDIISYTKGPGMGGPLSVGCTVAKTLSLLWGKPLVGVNHCVGHIEMGRVVTKSENPVVLYVSGGNTQVIAYADHRYRIFGETIDIAVGNCLDRVARLLNISNDPAPGYNIEQKAKKGKCYIRLPYTVKGMDMSFTGILSYIEQLVHHPQFSDSDVREMSKKRHKAAPSLTSMPVPPGETLNTDDICFSLQETIFAMLVEVTERAMSQIKTSDVLIVGGVGCNRRLQEMMQLMAAERGGRCFGMDQRYCIDNGCMIAYAGLLQYLSGSFTTMAEATVTQRFRTDEVYVTWRD | not soluble
MGGDADSPRERIEALAEDDHVEMRRAVDSAITSDAAAIIVIAGVGGATGSVIAPKLTDALQRIYDRPVYAVSVLPATHEEVPPENPARAIAAFESAANAQLVFDNDAWVDDRNDVEDVTDGLNAELAMRLGALFSAGEAVTAESVGQRVVDASEVISTLDEGGLATIGFARQPLGTDGDDGSLLDRARELVGMDETTVDEVESIKAVETTLRQATNGRLTFDCPRDAARSGLLVVSGPPEWLHQTAVSDGQSWLADEIGSVQLRTGDNPMPGGDELTILVLLGGIRGAPRIKEIQAATDLEHHHHHH | not soluble
MSLDQPLTFYGLKSMSGAFASYGKYADMGSRLAIAEHPQLLGHPLKYKVIDTEGNAGKAVRKVQEAIGQDGARFFQGCTLSSSALAVSKEIHKAGGVFMTPVGADEITGKDCNASTFRWSVPTYGAIRETLVPMSRQLPQAKRWYTITPQYVFGDALLDNARKVFAELGVEHIGNSYHSLQEQEFSGYLTNAIAAKPDVLVLLNFGSQASNALRQAVNFGIKDRMKVLMVWSAGLDQFQELGSDVLEGVYLGAQYWHQVDTPLNKLLVAATRKAYGINPNYPLAADYIGTKVMLEAIVKAGSLDGAAVSAALQGMRFQGPTGEELIRPGDHQVLKDYYLLRGKPQGQMRDEDDLAEVISSGRSFVEVDHTGCALAEGHHHHHH | soluble
MAKKTLPAGVKSPPYIFSPIPFLGHAIAFGKSPIEFLENAYEKYGPVFSFTMVGKTFTYLLGSDAAALLFNSKNEDLNAEDVYSRLTTPVFGKGVAYDVPNPVFLEQKKMLKSGLNIAHFKQHVSIIEKETKEYFESWGESGEKNVFEALSELIILTASHCLHGKEIRSQLNEKVAQLYADLDGGFSHAAWLLPGWLPLPSFRRRDRAHREIKDIFYKAIQKRRQSQEKIDDILQTLLDATYKDGRPLTDDEVAGMLIGLLLAGQHTSSTTSAWMGFFLARDKTLQKKCYLEQKTVCGENLPPLTYDQLKDLNLLDRCIKETLRLRPPIMIMMRMARTPQTVAGYTIPPGHQVCVSPTVNQRLKDSWVERLDFNPDRYLQDNPASGEKFAYVPFGAGRHRCIGENFAYVQIKTIWSTMLRLYEFDLIDGYFPTVNYTTMIHTPENPVIRYKRRSTHHHHHH | soluble
MTEKVSRFPGVFPLIVIGVPGSVDKTHKKLAFAPNLNRWRDIDVEKYFKVFEVYLENDANLAALAEMMRNKHFGDRKNIVYILVREGIGGGIIIEGKLYKGSFNAAGEIGHMKMYDRGPCFCGRVGCWEANTSISHCVRQYEKKKPLPGNTMYEKFETLCRIYEEDPLAKEVLDEFTGILIDGIVNLVNILSPEIVIVGGEGVFLPESVFEVIVSETRRQVHPMDKEVSVEKGSLSNKEVVLEGTSILSSMMISERLV | soluble
MANEKQYPMTKEGKEKLEQELEYLKTVKRKEVVERIKIARGFGDLSENSEYDAAKDEQAFVESRIQMLENMIRNAVIIEEDKENPDVVSLGKSVTFIELPDGEEETYTIVGSAEADPFEGKISNDSPIAKSLLGRRVGDEVTVQTPGGEMLVKIVAVK | soluble
MKYNREKLKNKVCLAIIGMPHGIKGDVLLKILSSEPQRLKTYGTLYDDRGHSYEIVMLRMQKKNAIVHFKGVEDRSAAEALRGIHLYVARDQLVDDLTEDEFYQVDLIGLRVQDCTGRILGEVSGLFNFGAGDLLEMRLNTGKTVLIPFSKAAVLEVCIASGFLVVDPVAAGLSDGGENTLEHHHHHH | soluble
MHHHHHHSSGVDLGTENLYFQSGVVTHEQFKAALRMVVDQGDPRLLLDSYVKIGEGSTGIVCLAREKHSGRQVAVKMMDLRKQQRRELLFNEVVIMRDYQHFNVVEMYKSYLVGEELWVLMEFLQGGALTDIVSQVRLNEEQIATVCEAVLQALAYLHAQGVIHRDIKSDSILLTLDGRVKLSDFGFCAQISKDVPKRKSLVGTPYWMAPEVISRSLYATEVDIWSLGIMVIEMVDGEPPYFSDSPVQAMKRLRDSPPPKLKNSHKVSPVLRDFLERMLVRDPQERATAQELLDHPFLLQTGLPECLVPLIQLYRKQTSTC | soluble
MGSSHHHHHHGKTIFVIVPTNEEQVAFLEALAKQDELNFDWQNPPTEPGQPVVILIPSDMVEWFLEMLKAKGIPFTVYVEEGGSENLYFQGGGGGGSECNISADERMDVPSEDYDVSIMIKAIHEVQDVLTSRQFATFSEVDTEIGKTLKRYEAFGDGFERFHVNLTKDALQSNDLQKSLKDMDKRCQDRLRDCASSQKDQINDILPFIRNTSSILVHGSGNLLALTIACSIQEHEGVRFYICEGRPARKGYPHGSGEQLLEKVLATPEGMRLKDKLHKYCTIVPDSGVSSVMNSVDFVIMGAYCVTEHGGLVHSTGSLQIAIVAAFRNVPCYVLCETFKFAHIFPLSTDDLKQPENGAGEVVPLVEFVPPSMITLIFSEQGIMPPSAVADEMFRFHTAPSAPGKRR | not soluble
MQHSLRSDGAGFYQLACCEYSLSMRKIALSGGFWGGVCRMAMKSIFFMFHQGNRRLTLTAVQGILLRFSLF | not soluble
GSPEFRWTKEEEETRQMYDMVVKIIDVLRSHNEACQENKDLQPYMPIPHVRDSLIQPHDRKKMKKVWDRAVDFLAANESRVRTETRRIGGADFLVWRWIQPSASCDKILVIPSKVWQGQAFHLDRRLERPHRD | soluble
MGSDKIHHHHHHMGGLQNVRSAALIGHNGSGKSLLLAQILYKSGLIDKADTKYVDYDPVEEEKGASFSSHVASLEWKGKKVYLIDTPGFSDFISEVINGIFVSENIISVVNAVAGVEIQTERTWNMADEMKKPIIVFVNQMDKERANFENVVAELKERFSRKIVPVVVPIGAAENFEGVVDLLKKKAYRYDGDKVQEEDMPESFNDMRSEILEDIVEQDEELMMRYLDGEDIGYDELMRVLKEGYKKGEIVPVLSGSALKGIGLDLLLDYLGDIGVSPEEAPSYKALLEDGTEIEVKFSEEEPFCAYIFKSVVDQFVGRITFAKVIAGVLRPGDTVVNVQKDVTEKVGHVYVPILKQQKEVESAGPGEIVVLLKLKEGAVGETLAHRDRRVKIVPPAFPEPMFSRSVHPKSKSDIDKISSGLSRLSDSDPTFVWEYDPETGETVVSGLGAMHLDVMIERLKKIFGVDVEVGKPKIAYRETITTTAVAEHKHKKQTGGHGQYGHVKIQLEPLPRGQGYEFVDKIVGGVIPRNFIPSVDKGIREAMKKGVLAGYPVTDVRVILFDGSYHEVDSSDISFQIAAIQAFKKGMEAAKPVILEPIMEVEVFVPEENAGDVMGEISSRRGRPLGMEPSGKGMVKVKAEVPLAEMLDFSSKLSSITSGRGYFTMRFQRYEIVPPNIQEKIIEERRREMQEQEK | not soluble
MNEIHQPLARRVWRSNVDEEMARMAECLKRFPLIAFDTEYPGIIFRTYFDSSSDECYRAMKGNVENTKLIQCGFTLFNAKGEIGGVWEINFSNFGDPSDTRNELSIEFLRRHGLDLQKIRDEGVDMFGYGFFPKLMTVFRSQKHVEFVTFQGAYDFAYFLSILNHGKLPETHGEFATEVVKVFGQVYDTKVMAGFCEGLGEHLGLSKLAQLLQITRVGRAHHAGSDSLMTALVFIKLKHVYEDSRFARGLIYGIGKSNLVAAPAPAPVPEPTLPLMCQQNVASYPVFHNGYVQNYEQPQLVSYDPSGAPWAFCNATGTYVQLTHLPASTFAYPSQTPSATVDYLGPVPNYYNNNACYVVE | soluble
MRQQNGWVLKGGTNIYCRIPGARQTKDLDLYRRDDPTSSTGAAESLVSAMNGYKIGPYIFHVIHPRQSGGVGTVDSERIDVTVIHGINNRLVSFGVDVSGDLEVTGTVEPVTVATSYKVHTEFLPQRFKVYSYPVASQIADKICAMYERHGNTPPGRASTRYHDLYDVALMARELTVSAFDLRSALDTQCRVRNMSLPNHLTIPDESWKDQYPIKARNFGDEQWGLTELDEALRVAGLLINPILNREFKESDRAWNCTALLWE | not soluble
